Measurements from publication PMC2747047.

Key:
Assay in all cases: purified protein
[1] = tested on: CO/N=C(\C(=O)N[C@@H]1C(=O)N2C(C(=O)O)=C(COC(C)=O)CS[C@H]12)c1csc(N)n1; settings: Fe/Zn enzyme; buffer not told in main text
[2] = tested on: C[C@@H](O)[C@H]1C(=O)N2C(C(=O)O)=C(SCCN=CN)C[C@H]12; settings: Fe/Zn enzyme; buffer not told in main text
[3] = tested on: O=C(Cc1cccs1)N[C@@H]1C(=O)N2C(C(=O)O)=C(/C=C/c3ccc([N+](=O)[O-])cc3[N+](=O)[O-])CS[C@H]12; assay type: biochemical, Arabidopsis thaliana; settings: 10 mM MOPS, pH 7.2 (as in Figure 2), Fe/Zn enzyme

Question: For Glx2-1 (Arabidopsis thaliana), which Km [1] is on record?
Answer: 25 ± 5 µM

Question: And the kcat [1]?
Answer: 0.20 ± 0.01 s⁻¹

Question: And the Km [2]?
Answer: 23 ± 3 µM

Question: What about the kcat [2] of the same substance?
Answer: 0.20 ± 0.01 s⁻¹

Question: And the Km [3]?
Answer: 9.9 ± 1.6 µM

Question: What about the kcat [3] of the same substance?
Answer: 1.20 ± 0.04 s⁻¹
